Laboratory results taken from US20220396632A1 (VERSEAU THERAPEUTICS, published 2022).
Non-standard residues stand in square brackets, D forms with d. No end group written: not given here. *: point of attachment. Biotin = O=C1N[C@H]2[C@H](CS[C@H]2CCCCC(=O)*)N1; sY = N[C@@H](Cc1ccc(OS(=O)(=O)O)cc1)C(=O)O

Tests used:
SulfoTyr C4 peptide = target: T1, SulfoTyr C4 peptide (not fully specified; Y4, Y7 and Y9 sulfated (SO3); C-terminal biotin); test: ELISA, 50 nM mAb
T1 construct: also called C4 alpha chain peptide; human sulfotyrosinylated C4 peptide
T1 peptide: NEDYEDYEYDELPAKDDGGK
Protocol: (§1) Recombinant PSGL-1-hFc1 chimera protein consisting of PSGL-1's extracellular domain (ECD) served as a positive control. […] Primary antibody was added (25 ul per well) in duplicate at 50 nM in assay buffer (blocking buffer containing 0.05% Tween®20) into test and control (just blocked) wells and the plate incubated for 45 min at 37° C.

[1] = target: T2, Sulfotyr fibrinogen γ peptide (not fully specified; Y8 and Y12 sulfated (SO3); C-terminal biotin); test: ELISA, 50 nM mAb
T2 construct: also called Fibrinogen gamma peptide; human sulfotyrosinylated fibrinogen peptide
T2 peptide: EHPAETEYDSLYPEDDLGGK
Protocol: as §1

SulfoCCK biotin peptide = target: T3, SulfoCCK biotin peptide (human); test: ELISA, 50 nM mAb
T3 construct: also called sulfotyrosine CCK peptide
T3 peptide: SHRISDRD[sY]MGWMDFGGK(Biotin)
Protocol: as §1

[2] = target: T4, Sulfotyrosine CCR2b biotin peptide (human); test: ELISA, 50 nM mAb
T4 construct: also called CCR2b peptide
T4 peptide: TTFFD[sY]D[sY]GAPSHGGK(Biotin)
Protocol: as §1

[3] = target: T5, Sulfotyrosine D6 biotin peptide (human); test: ELISA, 50 nM mAb
T5 construct: also called D6 peptide
T5 peptide: ENSSFY[sY][sY]D[sY]LDEVAFGGK(Biotin)
Protocol: as §1

[4] = target: T6, Scrambled Y42,52,63(SO3) PSGL-1(42-62) biotin peptide (sulfotyrosine at peptide positions 1, 11 and 22; C-terminal Lys-biotin); test: ELISA, immobilized biotin peptide
T6 peptide: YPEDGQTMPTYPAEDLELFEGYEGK
Summary of the method: (§2)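 In this ELISA, half-well high binding plates (Corning Cat. #3690) received 3 ug/mL/25 ul per well of biotin-tagged PSGL-1 peptides covering residues 42 to 62, diluted in PBS, pH 7.4, and coated overnight at 4° C. Duplicate readings for each antibody were averaged and the average assay background was subtracted. PSGL-1 protein or peptide was the positive control.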

[5] = target: T7, Biotin PSGL-1(42-62) peptide, unmodified (human, C-terminal Lys-biotin); test: ELISA, immobilized biotin peptide
T7 construct: Residues 42-62 followed by GGGK-biotin; also called WT; wild-type
T7 peptide: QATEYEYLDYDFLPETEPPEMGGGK
Summary of the method: as §2

[6] = target: T8, Biotin Y46,48,51(SO3) PSGL-1(42-62) peptide (human, sulfotyrosine at Y46, Y48 and Y51; C-terminal Lys-biotin); test: ELISA, immobilized biotin peptide
T8 construct: also called fully sulfated N-terminal PSGL-1 peptide
T8 peptide: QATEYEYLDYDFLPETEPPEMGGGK
Summary of the method: as §2

[7] = target: T9, Recombinant human PSGL-1(ECD)-hFc1 (R&D Systems, Cat. 3345-PS) (human, UniProt Q14242 42-305); test: blocking ELISA vs L-selectin-Fc
T9 construct: Bought; Gln42-Val295 counted on AAC50061; also called PSGL-1-Fc; PSGL-1-hFc1 chimera; not shown: human IgG1 Fc, Pro100-Lys330
T9 sequence: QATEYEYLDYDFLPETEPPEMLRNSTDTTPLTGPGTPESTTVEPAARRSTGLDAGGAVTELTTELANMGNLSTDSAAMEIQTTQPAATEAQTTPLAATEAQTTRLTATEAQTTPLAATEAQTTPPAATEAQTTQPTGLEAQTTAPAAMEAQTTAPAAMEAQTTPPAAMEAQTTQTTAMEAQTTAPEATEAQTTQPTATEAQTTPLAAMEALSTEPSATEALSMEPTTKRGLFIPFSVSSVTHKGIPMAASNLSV
Protocol: (§3) A typical selectin blocking ELISA assay involved coating high binding half-well plates (Corning, Cat. #3690) with 2.5 ug/mL/25 ul per well of recombinant PSGL-1-Fc protein (R&D Systems, Cat #3345-PS) in PBS, pH 7.4, overnight at 4° C. […] Antibody (test and controls) was serially diluted (25 ul/well) in duplicate in assay buffer (3% BSA in wash buffer) into appropriate wells and the plate incubated for 45 min at 37° C. […] The plate was washed ×3 and HRP-conjugated streptavidin was added in assay buffer [25 ul per well; (Jackson Immunoresearch, Cat. #016-030-084)] and the plate incubated for 45 min at 37° C. […] For each antibody, an IC50 value was determined from sigmoidal fitted titration curves.

[8] = target: T9, Recombinant human PSGL-1(ECD)-hFc1 (R&D …); test: blocking ELISA vs P-selectin-Fc
Protocol: as §3

B1: 09C10 (antibody, V domains shown)
VH: EVKLLESGGGLIQPGGSLRLSCAASGFTVSNNYVTWVRQAPGKGLELVSSIYSGGGTYYADSVKGRFTISRDNSKNTVYLQMNSLRADDTAVYYCARNVPVTNFGYWGQGTLVTVSS
VL: DIVMTQSPLSLPVTLGQPASISCRSSQSLVYRDGNTYLNWFQQRPGQSPRRLIYKVSNRDSGVPDRFSGSGSGTDFTLKISRVEAEDVGVYYCMQLTHWPPGFAQGTKLEIK
- binding normalized to PSGL-1 (SulfoTyr C4 peptide): 1.15
- binding normalized to PSGL-1 [1]: 1.3
- binding normalized to PSGL-1 (SulfoCCK biotin peptide): 0.75
- binding normalized to PSGL-1 [2]: 1.23
- binding normalized to PSGL-1 [3]: 1.2
- A450nm, 20 nM mAb [4]: 0.21 A450nm
- A450nm, 20 nM mAb [5]: 0.2 A450nm
- A450nm, 20 nM mAb [6]: 2.77 A450nm

B2: 18K07 (antibody, V domains shown)
VH: QIQLVQSGPELKKPGETVKISCEASGYTFTTYGMNWVKQAPGKGLKWMGWINTYSGVPTYADDFQGRFAFSVETSATTAYLQINNLKNEDAATYFCARSDDTYYGFAYWGQGTLVTVSA
VL: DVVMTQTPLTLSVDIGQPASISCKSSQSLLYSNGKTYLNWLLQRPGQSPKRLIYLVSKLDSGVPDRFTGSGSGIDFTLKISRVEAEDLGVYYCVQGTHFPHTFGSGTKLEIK
notes: From mouse immunisation; only variable domains given
- % max Block [7]: 0%
- % max Block [8]: 0%

B3: 5E12 (antibody, V domains shown)
VH: EIQLQQSGAELVRPGASVKLSCTASGFNIKDDYIHWVKQRPEQGLEWIGRIDPANGNTKSAPKFQDKATITADTSSNTAYLHLSSLTSEDTAVYYCSIRFAYWGQGTLVTVSA
VL: DVVMTQTPLSLSVSLGDQASISCRSSQSLVYRNGDTYLHWFLQKPGQSPKLLIYKVSNRFSGVPDRFSGSGSGTDFTLKISRVEAEDLGIYFCSQNTHVPYTFGGGTKLEIK
notes: Mouse hybridoma mAb; only variable domains given
- binding normalized to PSGL-1 (SulfoTyr C4 peptide): 0.03
- binding normalized to PSGL-1 [1]: 0.03
- binding normalized to PSGL-1 [2]: 0.03
- binding normalized to PSGL-1 [3]: 0.03
- % max Block [7]: 0%
- % max Block [8]: 0%
- EC50 [5]: 0.539 nM
- EC50 [6]: 0.633 nM

B4: 06C04 (antibody, IgG4, V domains shown)
VH: EVQLVESGGGLVQPGGSLRLSCAASGFTFSDHYMDWVRQAPGKGLEWVGRSRNKVKSYTTAYAASVEGRITISRDDSKNSLYLEMNSLKTEDTAVYYCVRVRWGGAFDIWGQGTMVTVSS
VL: QPVLTQPPSASGSPGQSVTISCTGTSSDVGGYNYVSWYQQHPGKAPKLMIYEVSKRPSGVPDRFSGSKSGNTASLTVSGLQAEDEADYYCSSYAGSNNLRVFGGGTKLTVL
- binding normalized to PSGL-1 (SulfoTyr C4 peptide): 0.94
- binding normalized to PSGL-1 [1]: 1.15
- binding normalized to PSGL-1 (SulfoCCK biotin peptide): 0.06
- binding normalized to PSGL-1 [2]: 0.23
- binding normalized to PSGL-1 [3]: 0.26
- binding result [4]: no binding (tested: 20 nM)
- A450nm, 20 nM mAb [5]: 0.07 A450nm
- A450nm, 20 nM mAb [6]: 2.64 A450nm

B5: 16E17 (antibody, V domains shown)
VH: QIQLVQSGPELKKPGETVKISCKASGYAFTTYGMSWVKQAPGKGLKWMGWINTYSGVPKYADDFKGRFAFSLETSASTAYLHINNLKNEDTATYFCGRHYYGSSYFDYWGQGTTLTVSS
VL: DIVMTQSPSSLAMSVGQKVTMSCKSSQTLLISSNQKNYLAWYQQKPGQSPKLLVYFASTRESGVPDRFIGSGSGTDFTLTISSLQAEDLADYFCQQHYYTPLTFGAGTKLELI
notes: as for B2
- % max Block [7]: 0%
- % max Block [8]: 0%

B6: 19N05 (antibody, V domains shown)
VH: QIQLVQSGPELKKPGETVKISCKASGYTFTTYGMSWVKQAPGKGLKWMGWINTYSGVPTFADDFKGRFAFSLETSASTAYLQINNLKNEDTATFFCARNYYGNHYFDYWGQGTTLTVSS
VL: DVQITQSPSYLAASPGETISINCRASNNINKYLAWYQEKPGKTNKLLIYSGSTLQSGIPSRFSGSGSGTDFTLTISSLEPEDFAMYHCQQHNYYPLTFGAGTKLELK
notes: as for B2
- % max Block [7]: 0%
- % max Block [8]: 0%

B7: 19L04 (antibody, IgG4, V domains shown)
VH: QIQLVQSGPELKKPGETVKISCKASGYTFTTYGMSWVKQAPGKGLKWMGWINTYSGVPTYADDFKGRFAFSLETSASTAYLQINNLKIEDTATYFCARHYYGSHYFDYWGQGTTLTVSS
VL: DIMMTQSPSSLAMSVGQKVTLRCKSSQSLLNSSNQKNYLAWYQQKPGQSPKLLVYFASTRESGVPVRFIGSGSGTDFTLTISSMQAEDLADYFCQQHYFSPLTFGAGTKLELK
notes: as for B2
- % max Block [7]: 0%
- % max Block [8]: 0%

B8: 9F9 (antibody, V domains shown)
VH: EVQLVETGGGLVQPKGSLKLSCAASGFTFNTNAMNWVRQAPGKGLEWVARIRSKSNNYATYYADSVKDRFTISRDDTQSMIYLQMNNLKTEDTGMYYCVRGGSYWYFDVWGAGTTVTVSS
VL: DVLMTQTPLSLPVSLGDQASISCRSSQSIVNSNGNTYLEWYLQKPGQSPKLLIYKVSNRFSGVPDRFSGSGSGTDFTLKISRVEAEDLGVYYCFQGSHVPWTFGGGTKLEIK
notes: Control anti-PSGL-1 mAb, recombinant; only variable domains given; also called 9F6
- % max Block [7]: 100%
- IC50 [7]: 10 nM
- % max Block [8]: 100%
- IC50 [8]: 10 nM

B9: 09A02 (antibody, IgG4, V domains shown)
VH: EVQLVQSGGGLVKPGGSLRLSCAASGFTFRTAWMSWVRQAPGKGLEWVGRMKSKNDGGTTDYAAPVKGRFTISRDDSRDTVYLQMNSLKTEDTGVYYCATYAAGATVPWGQGTLVTVSS
VL: DIVMTQTPLSAPVTLGQPASISCRSSRSLLQRNGYNYVDWYQQKAGNPPRLLIYLGSRRASGVPDRFSGSGSDKDFTLKISRVEADDVGFYFCKQSLQAPPTFGGGTKIEIT
- binding normalized to PSGL-1 (SulfoTyr C4 peptide): 1
- binding normalized to PSGL-1 [1]: 1.06
- binding normalized to PSGL-1 (SulfoCCK biotin peptide): 1.1
- binding normalized to PSGL-1 [2]: 0.93
- binding normalized to PSGL-1 [3]: 1.1
- A450nm, 20 nM mAb [4]: 0.03 A450nm
- binding result [4]: no binding (tested: 20 nM)
- EC50 [5]: ~500 nM
- A450nm, 20 nM mAb [6]: 2.82 A450nm
- EC50 [6]: 0.51 nM

B10: 06A07 (antibody, IgG4, V domains shown)
VH: QVQLVQSGPELKNPGASVKVSCKASGYSFTNFYINWVRQAPGRGLEWVGWISPNNGNTHYARNLQGRVTMTTDTSTNTAYLELKNLRSDDTAIYFCGRSVSMGYWGQGTLVTVSS
VL: LPVLTQPPSVSKGLRQTATLTCTGNSKNVGNQGAAWLQQHQGQPPKLLSYRNNNRPSGISERFSASRSGNTASLTITGLQPEDEADYYCSAWDSSLSAQVFGGGTKLTVL
- binding normalized to PSGL-1 (SulfoTyr C4 peptide): 0.63
- binding normalized to PSGL-1 [1]: 0.69
- binding normalized to PSGL-1 (SulfoCCK biotin peptide): 0.65
- binding normalized to PSGL-1 [2]: 0.43
- binding normalized to PSGL-1 [3]: 0.68
- A450nm, 20 nM mAb [4]: 0.02 A450nm
- binding result [4]: no binding (tested: 20 nM)
- EC50 [5]: 7.2 nM
- A450nm, 20 nM mAb [6]: 2.7 A450nm
- EC50 [6]: ~0.02 nM

B11: 43B6 (antibody, V domains shown)
VH: EVQLQQSGPDLVKPGALVKISCKASGYSFTAYYIHWVKQSHGKSLEWIGRVNPNTGGTSYNPKFKGKAILNVDKSSSTAYMELRSLTSEDSAVYYCARSGSPYYRYDDWGQGTTLTVSS
VL: ENVLTQSPAIMSASPGEKVTMTCRASSTVNSTYLHWFQQKSGASPKLWIYGSSNLASGVPARFSGSGSGTSYSLTISSVEAEDAATYYCQQYSGYPLTFGAGTTLELK
notes: Control anti-PSGL-1 mAb, recombinant; only variable domains given; also called 43B3
- % max Block [7]: 100%
- IC50 [7]: 6 nM
- % max Block [8]: 100%
- IC50 [8]: 8 nM
